From patent US6632621B1, “G protein-coupled receptor-like receptors and modulators thereof” (priority 1999, dated 2003)
Where no end group is shown, it is not given here. [ ]: non-standard residue; d: D form. Tyr(3-I) = N[C@@H](Cc1ccc(O)c(I)c1)C(=O)O

Columns and labels:
CEGPCR3 receptor = biological target: T1, CEGPCR3 receptor (Caenorhabditis elegans, UniProt P90745); assay: [35S]GTPγS binding assay, membranes of CHO cells transiently transfected with CEGPCR3; assay type: biochemical, C. elegans
T1 sequence (P90745 1-376): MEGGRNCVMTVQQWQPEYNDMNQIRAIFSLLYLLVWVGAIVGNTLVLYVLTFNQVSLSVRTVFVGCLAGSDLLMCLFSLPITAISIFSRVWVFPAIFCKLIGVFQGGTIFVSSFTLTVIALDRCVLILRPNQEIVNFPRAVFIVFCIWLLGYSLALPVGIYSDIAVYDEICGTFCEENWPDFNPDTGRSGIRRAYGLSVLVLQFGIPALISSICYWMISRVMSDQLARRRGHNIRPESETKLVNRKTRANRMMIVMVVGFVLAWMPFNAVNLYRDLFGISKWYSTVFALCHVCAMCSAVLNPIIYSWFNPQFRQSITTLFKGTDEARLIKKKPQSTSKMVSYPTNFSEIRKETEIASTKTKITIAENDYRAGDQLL
Procedure: (§1) Recombinant pCR3.1 clones encoding invertebrate GPCR-like receptors were transformed into wild-type CHO-K1 cells and functional expression was achieved using a temperature-shift incubation protocol. The CHO-K1 cells were cultured at 37° C. in a humidified atmosphere of 5% CO2 in air in DMEM medium supplemented with 10% heat-inactivated fetal bovine serum (i.e., FBS), 10 μg/ml gentamicin, and 0.1 mM nonessential amino acids to give complete DMEM medium. Additionally, for incubations at temperatures lower than 37° C., the medium was fortified with 10 mM HEPES (pH 7.4). Cells were transfected with recombinant pCR3.1 clones containing GPCR-like receptor DNAs, using LipofectAMINE PLUS™, essentially according to the manufacturer's instructions. […] In separate plastic tubes, PLUS (20 μl/plate; Life Technologies) was added to 0.75 ml/plate of recombinant plasmid DNA in OptiMEM (5 μg/plate; Gibco/BRL—Life Technologies), mixed and incubated at room temperature for 15 minutes. Separately, LipofectAMINE (30 μl/plate) was mixed with 0.75 ml OptiMEM and added to the pre-complexed DNA/PLUS mixture and incubated at room temperature for 15 minutes. The culture medium was then replaced with serum-free transfection medium (DMEM, 5 ml/plate). The DNA-PLUS-LipofectAMINE complex was then added to the plates (1.5 ml/plate) and mixed gently into the medium, followed by a 3 hour incubation at 37° C. in 5% CO2. At this time, the medium was supplemented with complete DMEM medium containing 20% FBS (6.5 ml/plate) and incubation was continued at 37° C. in 5% CO2. After a total of 24 hours at 37° C. in 5% CO2, the medium was replaced with complete DMEM medium fortified with 10 mM HEPES (10 ml/plate) and the cells were moved to an incubator maintained at 28-30° C. in a humidified atmosphere of 5% CO2 in air. The incubation continued for an additional 24 hours, typically at the lower temperature indicated above. A plasmid encoding Green Fluorescent Protein (i.e., GFP, 4 μg/plate) was used for transient GFP expression in CHO-K1 cells to estimate the transfection yields under the same conditions as used for GPCR-like receptor polynucleotides.
(§2) To assess expression, membranes were prepared from transfected CHO-K1 cells. Transfected cells were washed once with ice-cold Dulbecco's phosphate-buffered saline (i.e., PBS), 5 ml per 10 cm plate, and the cells were scraped into 5 ml of the same buffer. Cell suspensions from multiple plates were combined and centrifuged at 500×g for 10 minutes at 4° C. The cell pellet was reconstituted in ice-cold TEE (25 mM Tris, pH 7.4, 5 mM EGTA, 5 mM EDTA). Convenient aliquots were snap-frozen in liquid nitrogen and stored at −70° C. After thawing, the cells were homogenized and centrifuged at 500×g for 5 minutes at 4° C. to pellet nuclei and unbroken cells. Tile supernatant was centrifuged at 47,000×g for 30 minutes at 4° C. The membrane pellet was washed once with TEE, resuspended in 20 mM HEPES, pH 7.4, 100 mM NaCl, 10 mM MgCl2, 1 mM EDTA (assay buffer), distributed into aliquots of 0.5-1.0 ml, and frozen in liquid nitrogen. Membrane aliquots were stored at −70° C. Membrane protein concentration was determined using the BCA Protein Assay Reagent from Pierce (Rockford, Ill.), with bovine serum albumin (i.e., BSA) as a standard.
(§3) Aliquots of cell membranes prepared as described above and stored at −70° C. were thawed, homogenized, and diluted into buffer containing 20 mM HEPES, pH 7.4, 10 mM MgCl2, 1 mM EDTA, and 100 mM NaCl at a concentration of 10-50 μg/ml. Reaction mixtures were prepared in 96-well polypropylene plate, Nunc. Twenty microliters of a 10× putative modulator compound (including but not limited to potential peptide ligands) solution or a water control (20 μl), 18.2 µM GDP (0.11 ml, 10 μM final concentration), and a membrane preparation were mixed and placed on ice. The modulator/ligand-GDP-membrane mixtures were incubated for 20 minutes at room temperature on a shaking platform and then placed on ice.

CEGPCR12h receptor = biological target: T2, CEGPCR12h receptor (Caenorhabditis elegans, UniProt Q20275); assay: [35S]GTPγS binding assay, CEGPCR12h expressed in CHO cells; assay type: biochemical, C. elegans; settings: Table 11; one range for the group; results apply to all CEGPCR12 isoforms; read-out: EC50 range
T2 sequence (Q20275 1-402): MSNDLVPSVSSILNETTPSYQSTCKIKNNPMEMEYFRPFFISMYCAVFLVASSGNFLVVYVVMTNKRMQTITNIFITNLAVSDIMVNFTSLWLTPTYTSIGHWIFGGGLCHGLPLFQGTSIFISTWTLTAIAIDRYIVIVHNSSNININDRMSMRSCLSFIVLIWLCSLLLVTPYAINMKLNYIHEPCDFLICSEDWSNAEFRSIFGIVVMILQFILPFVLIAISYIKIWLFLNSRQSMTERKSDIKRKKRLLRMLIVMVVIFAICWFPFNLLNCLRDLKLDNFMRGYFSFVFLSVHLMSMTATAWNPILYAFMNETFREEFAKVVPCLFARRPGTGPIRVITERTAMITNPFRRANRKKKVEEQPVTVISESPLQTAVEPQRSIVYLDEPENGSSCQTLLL
Procedure: as §1, §2, §3

CEGPCR5 = biological target: T3, CEGPCR5 (Caenorhabditis elegans, UniProt Q18179); assay: [35S]GTPγS binding assay, CEGPCR5 expressed in CHO cells; assay type: biochemical, C. elegans
T3 sequence (Q18179 1-402): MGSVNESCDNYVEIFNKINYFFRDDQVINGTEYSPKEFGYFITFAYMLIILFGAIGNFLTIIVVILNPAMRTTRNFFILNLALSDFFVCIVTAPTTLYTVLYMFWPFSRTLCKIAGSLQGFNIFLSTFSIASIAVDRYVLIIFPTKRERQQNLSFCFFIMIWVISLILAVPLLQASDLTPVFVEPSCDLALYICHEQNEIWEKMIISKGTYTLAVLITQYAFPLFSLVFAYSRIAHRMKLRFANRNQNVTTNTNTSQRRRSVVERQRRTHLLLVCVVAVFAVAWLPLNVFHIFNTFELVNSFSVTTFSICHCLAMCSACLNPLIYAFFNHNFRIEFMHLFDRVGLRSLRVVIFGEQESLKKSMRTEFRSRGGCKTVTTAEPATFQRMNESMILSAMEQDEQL
Procedure: as §1, §2, §3

CEGPCR4 [1] = biological target: T4, CEGPCR4 (C. elegans); assay: competition binding assay, CEGPCR4/CHO membranes; IC50 range printed once for block r39-r54
T4 construct: Expressed in CHO cells; also called CEGPCR4 receptor; CEGPCR4/CHO membranes
T4 chain: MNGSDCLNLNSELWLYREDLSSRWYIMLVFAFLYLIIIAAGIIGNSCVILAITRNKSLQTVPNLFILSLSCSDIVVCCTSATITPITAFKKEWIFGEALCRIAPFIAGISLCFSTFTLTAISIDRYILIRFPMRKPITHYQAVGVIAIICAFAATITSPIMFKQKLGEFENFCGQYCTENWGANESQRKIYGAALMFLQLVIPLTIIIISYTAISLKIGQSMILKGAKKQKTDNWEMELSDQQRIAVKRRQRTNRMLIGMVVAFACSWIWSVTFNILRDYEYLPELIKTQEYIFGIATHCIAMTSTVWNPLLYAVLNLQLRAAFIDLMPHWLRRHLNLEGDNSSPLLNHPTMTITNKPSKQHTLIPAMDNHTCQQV

CEGPCR4 [2] = biological target: T4, CEGPCR4; assay: competition binding assay, CEGPCR4/CHO membranes; IC50 range printed once for block r26-r35
CEGPCR4 [3] = biological target: T4, CEGPCR4; assay: competition binding assay, CEGPCR4/CHO membranes; IC50 range printed once for block r9-r18
[4] = EC50, single values, GTPγS assay
[5] = EC50 range, Table 7, one range for the group of peptides, cells 24 h 37° C. then 24 h 28° C.

Molecule: GGPQGPLRF-NH2 [GGPQGPLRF-NH2]
- EC50 (CEGPCR3 receptor; [4]): 152 nM
- EC50 (CEGPCR3 receptor; [5]): 150 to 400 nM
- EC50 (CEGPCR12h receptor): 1500 to 3000 nM

Molecule: GNSFLRF-NH2 [GNSFLRF-NH2]
- EC50 (CEGPCR5): 80 to 800 nM
- EC50 (CEGPCR3 receptor; [4]): 7900 nM
- EC50 (CEGPCR3 receptor; EC50 range, Table 7, cells 24 h 37° C. then 24 h 28° C.): ~8000 nM
- receptor activation by matched ligand (CEGPCR3 receptor; membranes from cells transfected and maintained at 37° C.): not detectably activated
- potency lower than that of the two C. elegans flp15 peptides (CEGPCR3 receptor; ratio of EC50 values): 19-52 fold
- ligand-induced [35S]GTPγS binding (CEGPCR3 receptor; temperature shift to 28° C. 24 hours after transfection): significant stimulation

Molecule: GPSGPLRF-NH2 [GPSGPLRF-NH2]
- EC50 (CEGPCR3 receptor; [4]): 422 nM
- EC50 (CEGPCR3 receptor; [5]): 150 to 400 nM

Molecule: YDVPGVLRF-NH2 (synthetic) [Y-DVPGVLRF-NH2]
- binding result (CEGPCR4 [1]): binds

Molecule: EIVFHQISPIFFRF-NH2 (flp14 as printed) [EIVFHQISPIFFRF-NH2]
- binding result (CEGPCR4 [2]): binds

Molecule: EIPGVLRF-NH2 (flp18) [EIPGVLRF-NH2]
- binding result (CEGPCR4 [3]): binds

Molecule: KSVPGVLRF-NH2 (flp18) [KSVPGVLRF-NH2]
- binding result (CEGPCR4 [3]): binds

B1: 3-Iodo-Y-VPGVLRF-NH2 (peptide)
peptide: [Tyr(3-I)]VPGVLRF-NH2
modifications: N-terminus assumed
SMILES: CC(C)C[C@H](NC(=O)[C@@H](NC(=O)CNC(=O)[C@@H]1CCCN1C(=O)[C@@H](NC(=O)[C@@H](N)Cc1ccc(O)c(I)c1)C(C)C)C(C)C)C(=O)N[C@@H](CCCNC(=N)N)C(=O)N[C@@H](Cc1ccccc1)C(N)=O
notes: synthetic
- binding result (CEGPCR4 [1]): binds

Molecule: GGPQGPLRF-NH2 (flp15) [GGPQGPLRF-NH2]
- binding result (CEGPCR4 [2]): binds

Molecule: DFDGAMPGVLRF-NH2 (flp18) [DFDGAMPGVLRF-NH2]
- binding result (CEGPCR4 [3]): binds

B2: 3-Iodo-Y-GVLRF-NH2 (peptide)
peptide: [Tyr(3-I)]GVLRF-NH2
modifications: N-terminus assumed
SMILES: CC(C)C[C@H](NC(=O)[C@@H](NC(=O)CNC(=O)[C@@H](N)Cc1ccc(O)c(I)c1)C(C)C)C(=O)N[C@@H](CCCNC(=N)N)C(=O)N[C@@H](Cc1ccccc1)C(N)=O
notes: synthetic
- binding result (CEGPCR4 [1]): binds

Molecule: SPLGTMRF-NH2 (flp3) [SPLGTMRF-NH2]
- binding result (CEGPCR4 [2]): binds

Molecule: SEVPGVLRF-NH2 (flp18) [SEVPGVLRF-NH2]
- binding result (CEGPCR4 [3]): binds

Molecule: TNRNFLRF-NH2 [TNRNFLRF-NH2 (Lobster peptide II)]
- binding result (CEGPCR4 [2]): binds

B3: NGAPQPFVRF-NH2 (peptide)
peptide: NGAPQPFVRF-NH2
notes: flp11 (species cell stands one row higher, r34c4)
- binding result (CEGPCR4 [2]): binds

Molecule: DVPGVLRF-NH2 (flp18) [DVPGVLRF-NH2]
- binding result (CEGPCR4 [1]): binds

Molecule: YVPGVLRF-NH2 (synthetic) [Y-VPGVLRF-NH2]
- binding result (CEGPCR4 [1]): binds

Molecule: SVPGVLRF-NH2 (flp18) [SVPGVLRF-NH2]
- binding result (CEGPCR4 [3]): binds

Molecule: SAEPFGTMRF-NH2 (not fully specified; printed as SAEPFGTMRF-NH2, flp3) [SAEPFGTMRF-NH2]
- binding result (CEGPCR4 [2]): binds

Molecule: SDNFMRF-NH2 [SDNFMRF-NH2]
- binding result (CEGPCR4 [2]): binds

Molecule: PDNFMRF-NH2 [PDNFMRF-NH2]
- binding result (CEGPCR4 [2]): binds

Molecule: ASPSFIRF-NH2 (flp4) [ASPSFIRF-NH2]
- binding result (CEGPCR4 [3]): binds
